Source: the supplement of paper PMC9170038

Key:
[1] = tested on: MS2 coat protein; experiment: apparent KD of MS2 coat protein; designed switch direction (-1 OFF switch, 1 ON switch): 1; higher = weaker reporter binding; conditions: Eterna round: R98
Experimental: (§1)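 RNA-MaP: designed FMN/MS2 RNA switches (84 nt design region) are transcribed on-chip within common flanks and titrated with SNAP-549-labelled MS2 coat protein (about 1-3000 nM) in 100 mM Tris pH 7.5, 80 mM KCl, 4 mM MgCl2, without or with 200 uM FMN. Median apparent KD per design; activation ratio = KD,OFF / KD,ON.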

[2] = tested on: MS2 coat protein; experiment: apparent KD of MS2 coat protein; higher = weaker reporter binding; conditions: Eterna round: R101
Experimental: as §1

Row | Sequence | apparent KD of MS2 coat protein ([1]; input ligand: FMN 200 uM) | apparent KD of MS2 coat protein ([1]; input ligand: none) | apparent KD of MS2 coat protein ([2]; input ligand: FMN 200 uM) | apparent KD of MS2 coat protein ([2]; input ligand: none)
1 | AAAACAUGAGGAUCACCCAUGUAUAGAACGGUUAAUAAAAGUGAGGAUAUACUAAAUUUUAUAUAGUAGAAGGCACUGGGUACU [JR_SSNG3_Sub010] | 24.7 nM | 17.1 nM |  | 
2 | AAAACAUGAGGAUCACCCAUGUAUAGAUCGAUUAUUAGGAGUGAGGAUAUGCAAGUUAUAAGGAAGCAGAAGGCACAGGGAAAA [JR_SSNG3_Sub073] | 23.2 nM | 23.9 nM |  | 
3 | AAGAUACUUACAGGAUAUAGGGCAGAGGGUGCCCUAGAAGGGUGAACAUGAGGAUCACCCAUGUAUGUAUCUGAUUAGAAGGCA [Lezaraoren] | 119 nM | 73.2 nM |  | 
4 | ACAUACAUUCGAGGAUAUCGGUGAACAAAUUAACGAGAAGGCGAUAUAAUUUUUAAUCUUAUAAACAUGAGGAUCACCCAUGUA [JR_SSNG1_Sub001] | 17 nM | 20.9 nM |  | 
5 | CAUAUAUGGUGAGGAUAUGCAAAGGAUCACCUUGUAGAAGGCAUCAGGGUAGAAGGUGCAAGGAUCACCUGUAAGGAUAUAUCC [pwkr2 ssNG1 DX.26] | 412 nM | 1630 nM |  | 
6 | CCCUUUAGAAAAGGGACAUGAGGAUCACCCAUGUAGGCUGCACAGGAUAUCGAUCGGAGGCGGUACGAGAAGGGUGACGUCAUU [Zaarqu] | 64 nM | 52.3 nM |  | 
7 | GAUUACUUCACAGGAUAUAAAAUAAAGCAGAUUUUAGAAGGGUGAGCCUCGUCGACCGCGACAUGAGGAUCACCCAUGUUGUGU [Bitetiqu] | 50.8 nM | 29.3 nM |  | 
8 | GCAGCUAAUGCAGGAUAUCAGCACGUGUAGUGCUGAGAAGGGCACAUGAGGAUACUGACUGUGAUCAAUUAAUAUUAAUGCUGC [salish99#hingeEx3_55-58_004] (puzzle (switch architecture): Exclusion NG 1) |  |  | 9.19 nM | 63.5 nM
9 | GCGGAGGGCACAGGAUAUCGUCCUUAGUUGGUACGAGAAGGGUGGCGCUGCCACAUGAGGAUCACCCAUGUGCCCAAACUAUAG [Eresgeises] | 639 nM | 211 nM |  | 
10 | GCGGCCCGGGAGAAGGACAUGAGGAUCACCCAUGUCGCCGGGCCCGGGAAACCGGGCCCGGCCAUGUAGGAUAUCCCGGGCCGC [#This is a good prank] (puzzle (switch architecture): Inverted Exclusion NG 2) |  |  | 5.14 nM | 4.59 nM
11 | GCUGCUAUCGCAGGAUAUUACAUGGGAAAGAAUACAUGAGGAUCACCCAUGUAAAAGAUCGUAAAUAAGAAGGGCGAUAGCAGC [Lame State 5 - Jieux - Same State NG 2] | 353 nM | 329 nM |  | 
12 | GCUUGCGACGCAGGAUAUGGGUGCCUAAACACGAGGAUCACCCGUGUACAGGAAGCGAAAAGCUCUCAGAAGGGCGUCGCAGGC [United States 8 - Jieux - Same State NG 2] | 17.2 nM | 22.6 nM |  | 
13 | GGACUCACUUGAGGAUAUCGAGUGGAAUACACUCGAGAAGGCAGGGAAACCUGAGGAUCACCCAGGUAAGAGUCCAAUAAUAAA [Same State NG1 - A3C, U17G Submission 2C] | 18.7 nM | 43.4 nM |  | 
14 | UGUAAUAUUAUAGGAUAUGGAUACGAUACGUAUCCAGAAGGGUGAUUAAACUAUAAUCUAUACAUGAGGAUCACCCAUGUUUAU [AtrosYaY10] (puzzle (switch architecture): Same State NG 1) |  |  | 157 nM | 173 nM
15 | UUCACGGCGGGAAUAAGUGGUACUCAGGAUAUGGACUAGAAAUACAUGAGGAUCACCCAUGUGUUCCAGAAGGGAGGGCAUGCG [Tisorabea] (puzzle (switch architecture): Small Loop Same State NG 3) |  |  | 10.3 nM | 45.6 nM
16 | UUGAAUCGAAACAUGAGGAUCACCCAUGUGUUGUAAUUGACAUAGGAUAUGUAUAUACUUUUAUAAUAGAAGGAUGACGAUACU [S-state NG3 31] (puzzle (switch architecture): Same State NG 3) |  |  | 12 nM | 15.8 nM
